Experimental data as given in patent US12522842B2, “Glutamine synthetase mutant having glufosinate resistance and application thereof and cultivation method therefor” (GEVOTO LLC, priority 2019, dated 2026).

Tested on: glutamine synthetase-deficient Escherichia coli
Test: Growth of glutamine synthetase-deficient E. coli transformed with GS mutants in M9 medium containing glufosinate
Assay type: cell-based
Conditions: for growth of transformed GS-deficient E. coli (normal GS enzymatic activity): medium containing 0 mM glufosinate
Text: According to the sequences of the nucleic acid molecules provided in Example 4, the nucleic acid sequences encoding rice GS mutants OsA, OsC, OsD, OsE, OsF, OsG, OsH, OsI, OsK, OsP, OST, OsV, and OsY were synthesized using chemical synthesis method. Restriction digestion sites (Pac1 and Sbf1) were introduced at both ends thereof, and after restriction digestion, they were linked under the action of ligase to an expression vector (such as pADV7 vector, whose structure is shown in FIG. 4) that was subjected to the same restriction digestion treatment. Then, glutamine synthetase-deficient Escherichia coli was transformed with the resultant. After verification, positive clones were picked up and inoculated in M9 medium containing different concentrations of glufosinate to grow, and the growth status of defective Escherichia coli was observed.
With wild-type rice GS (its amino acid sequence shown in SEQ ID NO. 1 and its encoding gene shown in SEQ ID NO. 4) as a negative control, the glufosinate resistance for the GS mutant OsA (S59A, wherein the amino acid S at site 59 of the rice GS is mutated into A), OsC (S59C), OsD (S59D), OsE (S59E), OsF (S59F), OsG (S59G), OsH (S59H), OsI (S591), OsK (S59K), OsP (S59P), OsT (S59T), OsV (S59V), OsY (S59Y) was detected.
With reference to the detection method of Experimental Example 1, glufosinate resistance of the rice GS mutant OsGR (S59G and H296R, the amino acid S at site 59 of rice GS is mutated into G and the amino acid H at site 296 is mutated into R), the wheat GS mutant TaGR (S59G and H296R, the amino acid S at site 59 of wheat GS is mutated into G and the amino acid H at site 296 is mutated into R), the soybean GS mutant GmGR (S59G and H296R, the amino acid S at site 59 of soybean GS is mutated into G and the amino acid H at site 296 is mutated into R) provided in Example 2 was verified.
With reference to Experimental example 1, the glufosinate resistance of rice GS mutants OA, OD, OE, OG, OI, OK, OM, OP, OQ, OR, OS, OT, and OV provided in Example 3 was detected according to the following method.
With wild-type rice GS as a negative control, the glufosinate resistance of GS mutants OA (H296A, amino acid H at site 296 of rice GS is mutated into A), OD (H296D), OE (H296E), OG (H296G), OI (H2961), OK (H296K), OM (H296M), OP (H296P), OQ (H296Q), OR (H296R), OS (H296S), OT (H296T), OV (H296V) was detected.

[1] = medium containing 10 mM glufosinate
[2] = medium with 50 mM/100 mM glufosinate

Molecule | growth of transformed GS-deficient E. coli (normal GS enzymatic activity) | growth of transformed E. coli (glufosinate resistance) [1] | growth of transformed E. coli (glufosinate resistance) [2]
OsK (protein, OsK) MASLTDLVNLNLSDTTEKIIAEYIWIGGSGMDLRSKARTLSGPVTDPSKLPKWNYDGSKTGQAPGEDSEVILYPQAIFKDPFRKGNNILVMCDCYTPAGEPIPTNKRHNAAKIFSSPEVASEEPWYGIEQEYTLLQKDINWPLGWPVGGFPGPQGPYYCGIGADKSFGRDIVDSHYKACLYAGINISGINGEVMPGQWEFQVGPSVGISAGDQVWVARYILERITEIAGVVVSFDPKPIPGDWNGAGAHTNYSTKSMRNDGGYEIIKSAIEKLKLRHKEHISAYGEGNERRLTGRHETADINTFSWGVANRGASVRVGRETEQNGKGYFEDRRPASNMDPYIVTSMIAETTIIWKP | could normally grow | significantly superior to that of the negative control | significantly grew
OsP (protein, OsP) MASLTDLVNLNLSDTTEKIIAEYIWIGGSGMDLRSKARTLSGPVTDPSKLPKWNYDGSPTGQAPGEDSEVILYPQAIFKDPFRKGNNILVMCDCYTPAGEPIPTNKRHNAAKIFSSPEVASEEPWYGIEQEYTLLQKDINWPLGWPVGGFPGPQGPYYCGIGADKSFGRDIVDSHYKACLYAGINISGINGEVMPGQWEFQVGPSVGISAGDQVWVARYILERITEIAGVVVSFDPKPIPGDWNGAGAHTNYSTKSMRNDGGYEIIKSAIEKLKLRHKEHISAYGEGNERRLTGRHETADINTFSWGVANRGASVRVGRETEQNGKGYFEDRRPASNMDPYIVTSMIAETTIIWKP | could normally grow | significantly superior to that of the negative control | significantly grew
OsV (protein, OsV) MASLTDLVNLNLSDTTEKIIAEYIWIGGSGMDLRSKARTLSGPVTDPSKLPKWNYDGSVTGQAPGEDSEVILYPQAIFKDPFRKGNNILVMCDCYTPAGEPIPTNKRHNAAKIFSSPEVASEEPWYGIEQEYTLLQKDINWPLGWPVGGFPGPQGPYYCGIGADKSFGRDIVDSHYKACLYAGINISGINGEVMPGQWEFQVGPSVGISAGDQVWVARYILERITEIAGVVVSFDPKPIPGDWNGAGAHTNYSTKSMRNDGGYEIIKSAIEKLKLRHKEHISAYGEGNERRLTGRHETADINTFSWGVANRGASVRVGRETEQNGKGYFEDRRPASNMDPYIVTSMIAETTIIWKP | could normally grow | significantly superior to that of the negative control | –
OsA (protein, OsA) MASLTDLVNLNLSDTTEKIIAEYIWIGGSGMDLRSKARTLSGPVTDPSKLPKWNYDGSATGQAPGEDSEVILYPQAIFKDPFRKGNNILVMCDCYTPAGEPIPTNKRHNAAKIFSSPEVASEEPWYGIEQEYTLLQKDINWPLGWPVGGFPGPQGPYYCGIGADKSFGRDIVDSHYKACLYAGINISGINGEVMPGQWEFQVGPSVGISAGDQVWVARYILERITEIAGVVVSFDPKPIPGDWNGAGAHTNYSTKSMRNDGGYEIIKSAIEKLKLRHKEHISAYGEGNERRLTGRHETADINTFSWGVANRGASVRVGRETEQNGKGYFEDRRPASNMDPYIVTSMIAETTIIWKP | could normally grow | significantly superior to that of the negative control | –
